B1: E3 ubiquitin-protein ligase CBL-B (Homo sapiens), Q13191 (parent)
chain: MANSMNGRNPGGRGGNPRKGRILGIIDAIQDAVGPPKQAAADRRTVEKTWKLMDKVVRLCQNPKLQLKNSPPYILDILPDTYQHLRLILSKYDDNQKLAQLSENEYFKIYIDSLMKKSKRAIRLFKEGKERMYEEQSQDRRNLTKLSLIFSHMLAEIKAIFPNGQFQGDNFRITKADAAEFWRKFFGDKTIVPWKVFRQCLHEVHQISSGLEAMALKSTIDLTCNDYISVFEFDIFTRLFQPWGSILRNWNFLAVTHPGYMAFLTYDEVKARLQKYSTKPGSYIFRLSCTRLGQWAIGYVTGDGNILQTIPHNKPLFQALIDGSREGFYLYPDGRSYNPDLTGLCEPTPHDHIKVTQEQYELYCEMGSTFQLCKICAENDKDVKIEPCGHLMCTSCLTAWQESDGQGCPFCRCEIKGTEPIIVDPFDPRDEGSRCCSIIDPFGMPMLDLDDDDDREESLMMNRLANVRKCTDRQNSPVTSPGSSPLAQRRKPQPDPLQIPHLSLPPVPPRLDLIQKGIVRSPCGSPTGSPKSSPCMVRKQDKPLPAPPPPLRDPPPPPPERPPPIPPDNRLSRHIHHVESVPSRDPPMPLEAWCPRDVFGTNQLVGCRLLGEGSPKPGITASSNVNGRHSRVGSDPVLMRKHRRHDLPLEGAKVFSNGHLGSEEYDVPPRLSPPPPVTTLLPSIKCTGPLANSLSEKTRDPVEEDDDEYKIPSSHPVSLNSQPSHCHNVKPPVRSCDNGHCMLNGTHGPSSEKKSNIPDLSIYLKGDVFDSASDPVPLPPARPPTRDNPKHGSSLNRTPSDYDLLIPPLGEDAFDALPPSLPPPPPPARHSLIEHSKPPGSSSRPSSGQDLFLLPSDPFVDLASGQVPLPPARRLPGENVKTNRTSQDYDQLPSCSDGSQAPARPPKPRPRRTAPEIHHRKPHGPEAALENVDAKIAKLMGEGYAFEEVKRALEIAQNNVEVARSILREFAFPPPVSPRLNL

Variants of: B1
Settings: with cd2ap_human CD2AP

Variant	effect of a mutation on the interaction
K907L	decreasing interaction

Variants of: B1
Settings: with sh3k1_human SH3KBP1, Q96B97
Chain of sh3k1_human SH3KBP1, Q96B97 (Q96B97 whole entry): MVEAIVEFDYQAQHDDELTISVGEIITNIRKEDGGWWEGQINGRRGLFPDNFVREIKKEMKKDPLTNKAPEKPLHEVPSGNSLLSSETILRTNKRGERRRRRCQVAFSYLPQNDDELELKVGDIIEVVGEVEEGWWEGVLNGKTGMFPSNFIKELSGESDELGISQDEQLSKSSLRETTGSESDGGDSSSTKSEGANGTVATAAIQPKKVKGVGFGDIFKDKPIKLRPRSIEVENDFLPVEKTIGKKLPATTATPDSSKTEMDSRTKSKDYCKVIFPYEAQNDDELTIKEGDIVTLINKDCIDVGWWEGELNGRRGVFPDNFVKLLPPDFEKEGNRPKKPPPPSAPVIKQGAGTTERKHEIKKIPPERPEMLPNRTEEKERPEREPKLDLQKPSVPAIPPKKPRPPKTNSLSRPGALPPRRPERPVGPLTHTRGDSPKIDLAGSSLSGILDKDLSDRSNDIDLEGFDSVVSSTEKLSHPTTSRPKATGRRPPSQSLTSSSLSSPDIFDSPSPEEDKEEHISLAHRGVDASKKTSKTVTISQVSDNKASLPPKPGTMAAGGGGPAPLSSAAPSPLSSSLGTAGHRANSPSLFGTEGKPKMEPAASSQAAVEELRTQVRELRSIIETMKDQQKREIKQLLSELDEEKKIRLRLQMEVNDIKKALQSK

Variant	effect of a mutation on the interaction
K907L	decreasing interaction

Variants of: B1
Settings: with sh3k1_human SH3KBP1, Q96B97
Remark: another data set of the same source

Variant	effect of a mutation on the interaction
R911A	decreasing interaction

Variants of: B1
Settings: with cd2ap_human CD2AP
Remark: another data set of the same source

Variant	effect of a mutation on the interaction
R911A	decreasing interaction

Variants of: B1
Settings: with cd2ap_human CD2AP
Remark: another data set of the same source

Variant	effect of a mutation on the interaction
R904G	decreasing interaction

Variants of: B1
Settings: with sh3k1_human SH3KBP1, Q96B97
Remark: another data set of the same source

Variant	effect of a mutation on the interaction
R904G	decreasing interaction

— IntAct's records for PubMed 23663663
